Data taken from the Human Domainome abundance scans (Beltran et al. 2025).
± gives the uncertainty stated by the source.

B1: Zinc finger homeobox protein 4, residues 2086 to 2141; numbered along this chain, Q86UP3 (parent)
chain: RPRTRITDDQLKILRAYFDINNSPSEEQIQEMAEKSGLSQKVIKHWFRNTLFKERQ

Variants of: B1
Assay: abundance fitness (aPCA) (normalised: wild type 0, dead -1); higher = more abundant; growth selection in yeast, the domain comes from the species named
Details: Homo sapiens

Row | Variant | abundance fitness
1 | RPRTRITDDQLKILRAYFDINNSPSEEQIQEMAEKSPLSQKVIKHWFRNTLFKERQ [G37P] | -0.805 ± 0.11
2 | RPRTRITDDQLKILRAYFDINNSPSEEQIQEMAEKSGNSQKVIKHWFRNTLFKERQ [L38N] | -0.769 ± 0.15
3 | RPRTRITDDQLKILRAYFDINNSPSEEQIQEMAEKSGASQKVIKHWFRNTLFKERQ [L38A] | -0.06 ± 0.076
4 | RPRTRITDDQLKILRAYFDINNSPSEEQIQEMAEKSGWSQKVIKHWFRNTLFKERQ [L38W] | -0.666 ± 0.083
5 | RPRTRITDDQLKILRAYFDINNSPSEEQIQEMAEKSGMSQKVIKHWFRNTLFKERQ [L38M] | -0.011 ± 0.11
6 | RPRTRITDDQLKILRAYFDINNSPSEEQIQEMAEKSGRSQKVIKHWFRNTLFKERQ [L38R] | -0.746 ± 0.07
7 | RPRTRITDDQLKILRAYFDINNSPSEEQIQEMAEKSGFSQKVIKHWFRNTLFKERQ [L38F] | -0.793 ± 0.13
8 | RPRTRITDDQLKILRAYFDINNSPSEEQIQEMAEKSGDSQKVIKHWFRNTLFKERQ [L38D] | -0.765 ± 0.13
9 | RPRTRITDDQLKILRAYFDINNSPSEEQIQEMAEKSGPSQKVIKHWFRNTLFKERQ [L38P] | -0.982 ± 0.15
10 | RPRTRITDDQLKILRAYFDINNSPSEEQIQEMAEKSGSSQKVIKHWFRNTLFKERQ [L38S] | -0.545 ± 0.081
11 | RPRTRITDDQLKILRAYFDINNSPSEEQIQEMAEKSGTSQKVIKHWFRNTLFKERQ [L38T] | -0.279 ± 0.12
12 | RPRTRITDDQLKILRAYFDINNSPSEEQIQEMAEKSGCSQKVIKHWFRNTLFKERQ [L38C] | -0.11 ± 0.11
13 | RPRTRITDDQLKILRAYFDINNSPSEEQIQEMAEKSGISQKVIKHWFRNTLFKERQ [L38I] | -0.217 ± 0.14
14 | RPRTRITDDQLKILRAYFDINNSPSEEQIQEMAEKSGKSQKVIKHWFRNTLFKERQ [L38K] | -0.938 ± 0.15
15 | RPRTRITDDQLKILRAYFDINNSPSEEQIQEMAEKSGESQKVIKHWFRNTLFKERQ [L38E] | -0.557 ± 0.1
16 | RPRTRITDDQLKILRAYFDINNSPSEEQIQEMAEKSGVSQKVIKHWFRNTLFKERQ [L38V] | -0.117 ± 0.069
17 | RPRTRITDDQLKILRAYFDINNSPSEEQIQEMAEKSGQSQKVIKHWFRNTLFKERQ [L38Q] | -0.349 ± 0.11
18 | RPRTRITDDQLKILRAYFDINNSPSEEQIQEMAEKSGYSQKVIKHWFRNTLFKERQ [L38Y] | -0.419 ± 0.14
19 | RPRTRITDDQLKILRAYFDINNSPSEEQIQEMAEKMGLSQKVIKHWFRNTLFKERQ [S36M] | -0.213 ± 0.12
20 | RPRTRITDDQLKILRAYFDINNSPSEEQIQEMAEKKGLSQKVIKHWFRNTLFKERQ [S36K] | -0.824 ± 0.15
21 | RPRTRITDDQLKILRAYFDINNSPSEEQIQEMAEKRGLSQKVIKHWFRNTLFKERQ [S36R] | -0.533 ± 0.066
22 | RPRTRITDDQLKILRAYFDINNSPSEEQIQEMAEKWGLSQKVIKHWFRNTLFKERQ [S36W] | -0.42 ± 0.084
23 | RPRTRITDDQLKILRAYFDINNSPSEEQIQEMAEKQGLSQKVIKHWFRNTLFKERQ [S36Q] | -0.342 ± 0.11
24 | RPRTRITDDQLKILRAYFDINNSPSEEQIQEMAEKPGLSQKVIKHWFRNTLFKERQ [S36P] | -0.874 ± 0.11

Row | Variant | abundance fitness
25 | RPRTRITDDQLKILRAYFDINNSPSEEQIQEMAEKLGLSQKVIKHWFRNTLFKERQ [S36L] | -0.214 ± 0.079
26 | RPRTRITDDQLKILRAYFDINNSPSEEQIQEMAEKHGLSQKVIKHWFRNTLFKERQ [S36H] | -0.367 ± 0.13
27 | RPRTRITDDQLKILRAYFDINNSPSEEQIQEMAEKTGLSQKVIKHWFRNTLFKERQ [S36T] | -0.108 ± 0.094
28 | RPRTRITDDQLKILRAYFDINNSPSEEQIQEMAEKFGLSQKVIKHWFRNTLFKERQ [S36F] | -0.357 ± 0.1
29 | RPRTRITDDQLKILRAYFDINNSPSEEQIQEMAEKDGLSQKVIKHWFRNTLFKERQ [S36D] | -0.857 ± 0.13
30 | RPRTRITDDQLKILRAYFDINNSPSEEQIQEMAEKCGLSQKVIKHWFRNTLFKERQ [S36C] | -0.002 ± 0.1
31 | RPRTRITDDQLKILRAYFDINNSPSEEQIQEMAEKGGLSQKVIKHWFRNTLFKERQ [S36G] | -0.28 ± 0.064
32 | RPRTRITDDQLKILRAYFDINNSPSEEQIQEMAEKNGLSQKVIKHWFRNTLFKERQ [S36N] | -0.374 ± 0.18
33 | RPRTRITDDQLKILRAYFDINNSPSEEQIQEMAEKYGLSQKVIKHWFRNTLFKERQ [S36Y] | -0.267 ± 0.1
34 | RPRTRITDDQLKILRAYFDINNSPSEEQIQEMAEKEGLSQKVIKHWFRNTLFKERQ [S36E] | -0.244 ± 0.085
35 | RPRTRITDDQLKILRAYFDINNSPSEEQIQEMAEKIGLSQKVIKHWFRNTLFKERQ [S36I] | -0.082 ± 0.15
36 | RPRTRITDDQLKILRAYFDINNSPSEEQIQEMAEKAGLSQKVIKHWFRNTLFKERQ [S36A] | -0.06 ± 0.077
37 | RPRTRITDDQLKILRAYFDINNSPSEEQIQEMAEKSGLSMKVIKHWFRNTLFKERQ [Q40M] | 0.03 ± 0.095
38 | RPRTRITDDQLKILRAYFDINNSPSEEQIQEMAEKSGLSFKVIKHWFRNTLFKERQ [Q40F] | 0.038 ± 0.16
39 | RPRTRITDDQLKILRAYFDINNSPSEEQIQEMAEKSGLSGKVIKHWFRNTLFKERQ [Q40G] | -0.173 ± 0.069
40 | RPRTRITDDQLKILRAYFDINNSPSEEQIQEMAEKSGLSCKVIKHWFRNTLFKERQ [Q40C] | -0.1 ± 0.095
41 | RPRTRITDDQLKILRAYFDINNSPSEEQIQEMAEKSGLSLKVIKHWFRNTLFKERQ [Q40L] | -0.003 ± 0.071
42 | RPRTRITDDQLKILRAYFDINNSPSEEQIQEMAEKSGLSAKVIKHWFRNTLFKERQ [Q40A] | -0.14 ± 0.079
43 | RPRTRITDDQLKILRAYFDINNSPSEEQIQEMAEKSGLSIKVIKHWFRNTLFKERQ [Q40I] | -0.091 ± 0.12
44 | RPRTRITDDQLKILRAYFDINNSPSEEQIQEMAEKSGLSEKVIKHWFRNTLFKERQ [Q40E] | -0.253 ± 0.11
45 | RPRTRITDDQLKILRAYFDINNSPSEEQIQEMAEKSGLSDKVIKHWFRNTLFKERQ [Q40D] | -0.232 ± 0.13
46 | RPRTRITDDQLKILRAYFDINNSPSEEQIQEMAEKSGLSKKVIKHWFRNTLFKERQ [Q40K] | 0.082 ± 0.12
47 | RPRTRITDDQLKILRAYFDINNSPSEEQIQEMAEKSGLSHKVIKHWFRNTLFKERQ [Q40H] | -0.172 ± 0.13
